# Data taken from doi:10.1101/521658 (bioRxiv, 2019).
# T1: 6HIS-Δ38NADKc-1, refolded (A. thaliana, UniProt Q0WUY1 39-534)
# T1 sequence (looked up): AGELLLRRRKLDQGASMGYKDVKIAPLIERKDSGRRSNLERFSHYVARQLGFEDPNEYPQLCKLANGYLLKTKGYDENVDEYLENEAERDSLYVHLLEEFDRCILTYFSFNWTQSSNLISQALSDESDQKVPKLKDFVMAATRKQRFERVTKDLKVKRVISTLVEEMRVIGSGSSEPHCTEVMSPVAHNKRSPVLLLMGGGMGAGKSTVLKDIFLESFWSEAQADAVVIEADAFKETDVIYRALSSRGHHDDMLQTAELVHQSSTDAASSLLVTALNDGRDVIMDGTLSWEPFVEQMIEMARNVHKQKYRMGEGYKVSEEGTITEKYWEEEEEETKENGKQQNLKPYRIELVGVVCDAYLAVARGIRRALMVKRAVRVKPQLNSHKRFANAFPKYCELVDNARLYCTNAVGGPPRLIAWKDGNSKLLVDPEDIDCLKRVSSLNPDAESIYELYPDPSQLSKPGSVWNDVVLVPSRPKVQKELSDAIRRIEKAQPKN
# B1: A. thaliana (At) CaM1 (natural protein)
# chain: not shown
# Target: T1, 6HIS-Δ38NADKc-1, refolded
# Assay: enzyme activity titration
binder,measurement,value
B1,Kd,0.6 to 1 nM
